In assay [1] the target is T1, human protein arginine deiminase 4 (hPAD4), wild type (human, UniProt Q9UM07, biotin on the N-terminal AviTag).
T1 construct: Protein arginine deiminase 4, human; 'full length hPAD4 (74 kDa)'; PreScission or TEV site between the tags and PAD4; Tags were captured on streptavidin in BLI and ELISA; In solution it is in a dimer-monomer equilibrium; also called hPADI4; WT hPAD4; source: BirA-expressing E. coli (C43 (DE3) Pro+ or BL21 Gold (DE3)), purified (Ni-NTA, 0.5 mM TCEP); not shown: AviTag, N-terminal, kept
T1 sequence (Q9UM07 whole entry): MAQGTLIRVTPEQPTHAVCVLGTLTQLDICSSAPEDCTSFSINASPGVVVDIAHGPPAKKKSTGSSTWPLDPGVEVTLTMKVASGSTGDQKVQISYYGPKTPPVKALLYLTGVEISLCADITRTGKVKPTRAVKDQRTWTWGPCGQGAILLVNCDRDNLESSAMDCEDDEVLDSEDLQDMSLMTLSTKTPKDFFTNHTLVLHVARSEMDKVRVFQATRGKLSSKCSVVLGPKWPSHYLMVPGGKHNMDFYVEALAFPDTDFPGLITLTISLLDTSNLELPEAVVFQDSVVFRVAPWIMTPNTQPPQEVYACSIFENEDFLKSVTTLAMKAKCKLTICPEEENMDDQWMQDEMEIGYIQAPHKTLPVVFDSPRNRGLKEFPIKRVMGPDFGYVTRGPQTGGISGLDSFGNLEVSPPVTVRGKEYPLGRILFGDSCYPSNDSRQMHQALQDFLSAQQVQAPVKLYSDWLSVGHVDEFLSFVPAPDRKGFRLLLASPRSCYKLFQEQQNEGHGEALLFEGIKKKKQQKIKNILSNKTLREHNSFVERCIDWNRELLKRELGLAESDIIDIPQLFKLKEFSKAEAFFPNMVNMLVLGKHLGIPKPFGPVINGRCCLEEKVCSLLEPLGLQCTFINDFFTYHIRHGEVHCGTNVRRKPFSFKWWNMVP
The experiment in a line: negative-stain EM; hPAD4 incubated with Fab fragments in equimolar amounts; 2D micrographs; uranyl formate stain. The settings on record: both partners purified.

For assay [2], the target named is T2, mouse protein arginine deiminase 4 (mPAD4) (Mus musculus, UniProt Q9Z183, biotin on the N-terminal AviTag).
T2 construct: Protein arginine deiminase 4, mouse; PreScission or TEV site between the tags and PAD4; also called murine PAD4; source: BirA-expressing E. coli (C43 (DE3) Pro+ or BL21 Gold (DE3)), purified (Ni-NTA, 0.5 mM TCEP); not shown: AviTag, N-terminal, kept
T2 sequence (Q9Z183 whole entry): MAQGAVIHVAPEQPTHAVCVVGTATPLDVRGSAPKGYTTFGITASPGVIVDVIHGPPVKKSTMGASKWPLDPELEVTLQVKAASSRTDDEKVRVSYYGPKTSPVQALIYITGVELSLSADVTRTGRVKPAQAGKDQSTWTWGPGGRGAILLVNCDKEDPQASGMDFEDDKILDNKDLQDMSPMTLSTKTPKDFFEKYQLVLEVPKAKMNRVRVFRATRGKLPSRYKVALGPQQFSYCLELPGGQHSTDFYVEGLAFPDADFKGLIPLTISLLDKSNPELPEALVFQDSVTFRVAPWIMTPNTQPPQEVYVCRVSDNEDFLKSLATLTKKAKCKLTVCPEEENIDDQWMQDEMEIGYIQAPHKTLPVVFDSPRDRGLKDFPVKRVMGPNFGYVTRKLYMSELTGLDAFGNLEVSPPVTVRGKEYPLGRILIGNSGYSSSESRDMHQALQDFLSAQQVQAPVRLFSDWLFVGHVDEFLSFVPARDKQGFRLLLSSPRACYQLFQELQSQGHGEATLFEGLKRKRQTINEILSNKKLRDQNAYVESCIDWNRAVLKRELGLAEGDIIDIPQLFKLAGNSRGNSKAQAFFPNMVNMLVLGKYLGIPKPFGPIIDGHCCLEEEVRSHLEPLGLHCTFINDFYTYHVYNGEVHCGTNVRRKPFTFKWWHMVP
The experiment in a line: BLI; Octet RED384; biotinylated mPAD4 on streptavidin biosensors, antibody as analyte; TBSTB; 10 mM Ca2+. The conditions noted are these: both partners purified.

Assay [3] has as its target T2, mouse protein arginine deiminase 4 …. The experiment in a line: BLI; Octet RED384; biotinylated mPAD4 on streptavidin biosensors, antibody as analyte; TBSTB; calcium-free form of mPAD4. The settings on record: both partners purified. In general terms: Biolayer interferometry detects binding as a change in optical thickness at a sensor tip.
Assay [4] concerns the target T1, human protein arginine deiminase 4 …. The experiment in a line: BLI; Octet RED384; biotinylated hPAD4 on streptavidin biosensors, antibody (IgG by the legend) as analyte; TBSTB; 2 and 10 mM Ca2+; 1:1 monovalent model. The settings on record: both partners purified.
In the next assay the target is T3, PAD2 (Homo sapiens (assumed), UniProt Q9Y2J8).
T3 construct: PAD2, commercially available; also called protein arginine deiminase 2
T3 sequence (Q9Y2J8 whole entry): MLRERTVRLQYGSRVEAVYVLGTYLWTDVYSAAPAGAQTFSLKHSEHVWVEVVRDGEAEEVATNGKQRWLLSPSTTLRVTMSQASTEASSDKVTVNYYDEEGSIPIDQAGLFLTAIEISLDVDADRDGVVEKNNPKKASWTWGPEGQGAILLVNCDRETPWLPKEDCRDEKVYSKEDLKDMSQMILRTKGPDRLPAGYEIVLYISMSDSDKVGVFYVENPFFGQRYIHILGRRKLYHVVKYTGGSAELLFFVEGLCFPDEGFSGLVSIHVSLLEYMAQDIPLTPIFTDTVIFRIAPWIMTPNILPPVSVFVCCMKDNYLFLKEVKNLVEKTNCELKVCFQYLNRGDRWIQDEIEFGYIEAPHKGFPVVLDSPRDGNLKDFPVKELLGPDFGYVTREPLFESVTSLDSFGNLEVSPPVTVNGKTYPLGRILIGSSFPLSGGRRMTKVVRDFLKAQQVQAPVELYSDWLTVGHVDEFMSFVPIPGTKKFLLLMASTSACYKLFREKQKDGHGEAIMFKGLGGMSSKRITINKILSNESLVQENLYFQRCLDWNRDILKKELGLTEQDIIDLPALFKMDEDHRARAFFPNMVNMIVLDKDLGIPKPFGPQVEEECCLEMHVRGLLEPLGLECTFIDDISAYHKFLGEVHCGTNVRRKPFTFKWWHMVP
The experiment in a line: BLI; binding of the functional human antibodies to PAD4, PAD2 and PAD3; who was immobilised and the antibody format are not told for this experiment. The conditions noted are these: both partners purified.

The target of assay [5] is T1, human protein arginine deiminase 4 …. Described as above. The conditions noted are these: both partners purified.
Assay [6] addresses T4, hPAD4 R8E–Y435A double mutant (human, UniProt Q9UM07, R8E | Y435A).
T4 construct: Protein arginine deiminase 4, human, double mutant; Mutant of the hPAD4 construct m1; also called R8E/Y435 double mutant; source: cloned and expressed as hPAD4 (E. coli, Ni-NTA)
Nature of the assay: BLI; Octet RED384; biotinylated hPAD4 (WT or mutant) on streptavidin biosensors, purified binder as analyte; TBSTB; calcium concentration not told for these experiments; 1:1 monovalent model. The settings on record: both partners purified.

Another assay addresses T5, hPAD4 R8E (human, UniProt Q9UM07, R8E).
T5 construct: Protein arginine deiminase 4, human, point mutant; Mutant of the hPAD4 construct m1; source: cloned and expressed as hPAD4 (E. coli, Ni-NTA)
Described as above. The conditions noted are these: both partners purified.

Another assay has as its target T6, hPAD4 Y435A (human, UniProt Q9UM07, Y435A).
T6 construct: Protein arginine deiminase 4, human, point mutant; Mutant of the hPAD4 construct m1; source: cloned and expressed as hPAD4 (E. coli, Ni-NTA)
The assay is described as above. The conditions noted are these: both partners purified.

The target in assay [7] is T1, human protein arginine deiminase 4 …. Nature of the assay: cell-based or functional assay.
For assay [8] the target is unchanged. The experiment in a line: BLI; Octet RED384; biotinylated hPAD4 (WT or mutant) on streptavidin biosensors, purified binder as analyte; TBSTB; calcium concentration not told for these experiments; 1:1 monovalent model. The conditions noted are these: both partners purified.
In the next assay the target is T7, PAD3 (Homo sapiens (assumed), UniProt Q9ULW8).
T7 construct: PAD3, commercially available; also called protein arginine deiminase 3
T7 sequence (Q9ULW8 whole entry): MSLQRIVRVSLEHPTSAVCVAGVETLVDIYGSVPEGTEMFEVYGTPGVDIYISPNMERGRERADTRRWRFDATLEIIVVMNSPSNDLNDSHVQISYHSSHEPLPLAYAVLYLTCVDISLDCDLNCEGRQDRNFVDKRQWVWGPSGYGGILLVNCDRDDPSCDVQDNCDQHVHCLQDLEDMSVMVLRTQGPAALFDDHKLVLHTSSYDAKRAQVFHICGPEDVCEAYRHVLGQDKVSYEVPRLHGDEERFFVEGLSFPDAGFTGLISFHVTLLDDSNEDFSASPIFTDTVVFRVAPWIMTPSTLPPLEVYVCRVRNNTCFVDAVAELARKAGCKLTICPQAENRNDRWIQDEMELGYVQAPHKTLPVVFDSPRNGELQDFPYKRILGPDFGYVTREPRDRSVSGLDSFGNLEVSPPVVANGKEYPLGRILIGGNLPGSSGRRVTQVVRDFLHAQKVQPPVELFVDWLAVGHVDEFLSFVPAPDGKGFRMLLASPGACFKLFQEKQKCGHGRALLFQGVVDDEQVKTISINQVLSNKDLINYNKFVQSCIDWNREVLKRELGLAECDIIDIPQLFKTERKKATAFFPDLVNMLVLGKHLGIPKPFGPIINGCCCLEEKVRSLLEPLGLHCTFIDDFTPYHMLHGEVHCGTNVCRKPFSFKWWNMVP
The experiment in a line: BLI; binding of the functional human antibodies to PAD4, PAD2 and PAD3; who was immobilised and the antibody format are not told for this experiment. The conditions noted are these: both partners purified.

T6 sequence (Q9UM07 whole entry Y435A): as the sequence (Q9UM07 whole entry) above, with Y435A counted along it
T4 sequence (Q9UM07 whole entry R8E/Y435A): as the sequence (Q9UM07 whole entry) above, with R8E, Y435A counted along it
T5 sequence (Q9UM07 whole entry R8E): as the sequence (Q9UM07 whole entry) above, with R8E counted along it

B1: hI281 Fab (Fab, V domains shown)
VH: EVQLVESGGGLVQPGGSLRLSCAASGFNVSYSSIHWVRQAPGKGLEWVASIYPYYGSTSYADSVKGRFTISADTSKNTAYLQMNSLRAEDTAVYYCARQMYYWMFSKLALDYWGQGTLVTVSS
VL: DIQMTQSPSSLSASVGDRVTITCRASQSVSSAVAWYQQKPGKAPKLLIYSASSLYSGVPSRFSGSRSGTDFTLTISSLQPEDFATYYCQQSYYRTLFTFGQGTKVEIK
notes: Fab heavy chain of hI281; light chain of hI281; From synthetic Fab-phage library E (4D5-type scaffold); also called Fab-hI281; source: E. coli C43 (DE3) Pro+, purified (Ni-NTA)
Take B1: the binding result in assay [1] was “binds”.

B2: mA342 IgG (antibody, V domains shown)
VH: EVQLVESGGGLVQPGGSLRLSCAASGFNVYSSSIHWVRQAPGKGLEWVASISSSSGYTYYADSVKGRFTISADTSKNTAYLQMNSLRAEDTAVYYCARYSYSIYYYSGYPYYHMGLDYWGQGTLVTVSS
VL: DIQMTQSPSSLSASVGDRVTITCRASQSVSSAVAWYQQKPGKAPKLLIYSASSLYSGVPSRFSGSRSGTDFTLTISSLQPEDFATYYCQQWSYSRLITFGQGTKVEIK
notes: heavy chain of mA342 fused to hIgG1-Fc (pFUSE-hIgG1-Fc); light chain of mA342; also called WT mA342; source: Expi293, transiently cotransfected, purified (protein A or Ni-NTA); copies: 2 + 2
Take B2: the Kd (usually the constant that tells how readily two partners part at equilibrium) in assay [2] was less than 1 nM; in assay [3], 200000 nM.

B3: hI281 IgG (antibody, V domains shown)
VH: EVQLVESGGGLVQPGGSLRLSCAASGFNVSYSSIHWVRQAPGKGLEWVASIYPYYGSTSYADSVKGRFTISADTSKNTAYLQMNSLRAEDTAVYYCARQMYYWMFSKLALDYWGQGTLVTVSS
VL: DIQMTQSPSSLSASVGDRVTITCRASQSVSSAVAWYQQKPGKAPKLLIYSASSLYSGVPSRFSGSRSGTDFTLTISSLQPEDFATYYCQQSYYRTLFTFGQGTKVEIK
notes: heavy chain of hI281 fused to hIgG1-Fc (pFUSE-hIgG1-Fc); as the light chain of m10; IgG1; source: Expi293, transiently cotransfected, purified (protein A or Ni-NTA); copies: 2 + 2
As for B3, in [4], the binding result is recorded as “binds”.

B4: hA362 IgG (antibody, V domains shown)
VH: EVQLVESGGGLVQPGGSLRLSCAASGFNVSYYSIHWVRQAPGKGLEWVASISPYYGSTYYADSVKGRFTISADTSKNTAYLQMNSLRAEDTAVYYCARHPYRKGYSGLDYWGQGTLVTVSS
VL: DIQMTQSPSSLSASVGDRVTITCRASQSVSSAVAWYQQKPGKAPKLLIYSASSLYSGVPSRFSGSRSGTDFTLTISSLQPEDFATYYCQQSSYLPLFTFGQGTKVEIK
notes: heavy chain of hA362 fused to hIgG1-Fc (pFUSE-hIgG1-Fc); as the light chain of m13; IgG1; source: Expi293, transiently cotransfected, purified (protein A or Ni-NTA); copies: 2 + 2
As for B4, the values for the binding result (with PAD2; in [5]) were “no binding” and “binds”, respectively.

B5: hA288 Fab (Fab, V domains shown)
VH: EVQLVESGGGLVQPGGSLRLSCAASGFNVYYSSIHWVRQAPGKGLEWVASIYSYSGSTSYADSVKGRFTISADTSKNTAYLQMNSLRAEDTAVYYCARYWPKMAGYWYIYRFALDYWGQGTLVTVSS
VL: DIQMTQSPSSLSASVGDRVTITCRASQSVSSAVAWYQQKPGKAPKLLIYSASSLYSGVPSRFSGSRSGTDFTLTISSLQPEDFATYYCQQYRQYNLITFGQGTKVEIK
notes: Fab heavy chain of hA288; light chain of hA288; source: E. coli C43 (DE3) Pro+, purified (Ni-NTA)
On to B5, for which the binding result in assay [1] was “binds”.

B6: mA342-c3 (antibody, V domains shown)
VH: EVQLVESGGGLVQPGGSLRLSCAASGFNVYSSSIHWVRQAPGKGLEWVASISSSSGYTYYADSVKGRFTISADTSKNTAYLQMNSLRAEDTAVYYCARYSASIYYYSGYPAYHAGLDYWGQGTLVTVSS
VL: DIQMTQSPSSLSASVGDRVTITCRASQSVSSAVAWYQQKPGKAPKLLIYSASSLYSGVPSRFSGSRSGTDFTLTISSLQPEDFATYYCQQWSYSRLATFGQGTKVEIK
notes: as the heavy chain of m20 with the stated changes; as the light chain of m20 with the stated change; The text names it mA342-c3, the legends mA342-c4
B6: in assay [2], the binding result is “binds”.

B7: hA362 Fab (Fab, V domains shown)
VH: EVQLVESGGGLVQPGGSLRLSCAASGFNVSYYSIHWVRQAPGKGLEWVASISPYYGSTYYADSVKGRFTISADTSKNTAYLQMNSLRAEDTAVYYCARHPYRKGYSGLDYWGQGTLVTVSS
VL: DIQMTQSPSSLSASVGDRVTITCRASQSVSSAVAWYQQKPGKAPKLLIYSASSLYSGVPSRFSGSRSGTDFTLTISSLQPEDFATYYCQQSSYLPLFTFGQGTKVEIK
notes: Fab heavy chain of hA362; light chain of hA362; also called Fab hA362; source: E. coli C43 (DE3) Pro+, purified (Ni-NTA)
For the molecule B7, the “fold decrease of binding affinity against WT hPAD4” value is roughly 160 fold in assay [6], roughly 3 fold with hPAD4 R8E and roughly 10 fold with hPAD4 Y435A. Also, in assay [1], the binding result is “binds”.

B8: E3 (affinity-matured variant of hI365) (antibody, V domains shown)
VH: EVQLVESGGGLVQPGGSLRLSCAASGFNFFYSIHWVRQAPGKGLEWVASISPYTDYTSYADSVKGRFTISADTSKNTAYLQMNSLRAEDTAVYYCARKHPGSYPFWGFALDYWGQGTLVTVSS
VL: DIQMTQSPSSLSASVGDRVTITCRASQSVSSAVAWYQQKPGKAPKLLIYSASSLYSGVPSRFSGSRSGTDFTLTISSLQPEDFATYYCQQSSSSLVTFGQGTKVEIK
Turning to B8, in assay [7], the “IC50 of PAD4 inhibition” value is 94 nM and the “IC50 of inhibition of PAD4 citrullination of histone H3 (western blot)” value amounted to 95 nM.

B9: hI364 IgG (antibody, V domains shown)
VH: EVQLVESGGGLVQPGGSLRLSCAASGFNVYSSSIHWVRQAPGKGLEWVASISSSSGSTSYADSVKGRFTISADTSKNTAYLQMNSLRAEDTAVYYCARYSDHYYYWSYWSSWYSGLDYWGQGTLVTVSS
VL: DIQMTQSPSSLSASVGDRVTITCRASQSVSSAVAWYQQKPGKAPKLLIYSASSLYSGVPSRFSGSRSGTDFTLTISSLQPEDFATYYCQQSSSSLITFGQGTKVEIK
notes: heavy chain of hI364 fused to hIgG1-Fc (pFUSE-hIgG1-Fc); light chain of hI364; The activity screen and the selection were done with the Fab form; source: Expi293, transiently cotransfected, purified (protein A or Ni-NTA); copies: 2 + 2
For the molecule B9, the Kd in assay [4] is 0.64 nM.

B10: hI365 G58D (antibody, V domains shown)
VH: EVQLVESGGGLVQPGGSLRLSCAASGFNFYYSIHWVRQAPGKGLEWVASISPYSDYTSYADSVKGRFTISADTSKNTAYLQMNSLRAEDTAVYYCARKHPGSYPFWGWALDYWGQGTLVTVSS
VL: DIQMTQSPSSLSASVGDRVTITCRASQSVSSAVAWYQQKPGKAPKLLIYSASSLYSGVPSRFSGSRSGTDFTLTISSLQPEDFATYYCQQSSSSLVTFGQGTKVEIK
notes: as the heavy chain of hI365 with the stated change; as the light chain of hI365; also called mutant G58D
As to B10, in assay [8], the binding result was “binds”.

B11: hI365 IgG (antibody, V domains shown)
VH: EVQLVESGGGLVQPGGSLRLSCAASGFNFYYSIHWVRQAPGKGLEWVASISPYSGYTSYADSVKGRFTISADTSKNTAYLQMNSLRAEDTAVYYCARKHPGSYPFWGWALDYWGQGTLVTVSS
VL: DIQMTQSPSSLSASVGDRVTITCRASQSVSSAVAWYQQKPGKAPKLLIYSASSLYSGVPSRFSGSRSGTDFTLTISSLQPEDFATYYCQQSSSSLVTFGQGTKVEIK
notes: heavy chain of hI365 fused to hIgG1-Fc (pFUSE-hIgG1-Fc); as the light chain of m16; also called WT hI365; source: Expi293, transiently cotransfected, purified (protein A or Ni-NTA); copies: 2 + 2
Consider B11, for which, in assay [4], the Kd was 1.2 nM.

B12: E6 (affinity-matured variant of hI365) (antibody, V domains shown)
VH: EVQLVESGGGLVQPGGSLRLSCAASGFNFYYSIHWVRQAPGKGLEWVASISPYTDRTSYADSVKGRFTISADTSKNTAYLQMNSLRAEDTAVYYCARKHPGRYPNWGFALDYWGQGTLVTVSS
VL: DIQMTQSPSSLSASVGDRVTITCRASQSVSSAVAWYQQKPGKAPKLLIYSASSLYSGVPSRFSGSRSGTDFTLTISSLQPEDFATYYCQQSMSSQLVTFGQGTKVEIK
notes: variant of the heavy chain of hI365 from soft-randomisation libraries; variant of the light chain of hI365; CDR L3 of ten amino acids; also called clone E6
For B12, the binding result with PAD3 is “no binding”. The “IC50 of inhibition of PAD4 citrullination of histone H3 (western blot)” value in assay [7] came to 13 nM.

Values taken from PMC11142921, “Antibody discovery identifies regulatory mechanisms of protein arginine deiminase 4” (Nature Chemical Biology, 2024).
